Test results reported in patent publication US20240116985A1 (published 2024).
Starred links: 1 amine or outer side, 2 acyl side, 3 side chain; linkers in the order of their positions; H or OH if unused. Positions of bridges follow the written chain, without caps; N, C: chain ends. Non-standard residues stand in square brackets, D forms with d. Primed or numbered codes have the meaning given here. *: point of attachment. B5(10) = 2-amino-2-(pent-4-en-1-yl)hept-6-enoic acid, bis(4-pentenyl)glycine, stitching residue bearing both staples, C=CCCCC(CCCC=C)(N[*:1])C(=O)[*:2]; PyrS2″ = (S)-3-amino-1-((pent-4-en-1-yloxy)carbonyl)pyrrolidine-3-carboxylic acid (stapling residue), C=CCCCOC(=O)N1CC[C@@](N[*:1])(C(=O)[*:2])C1; B5(18) = 2,2-bis(4-pentenyl)glycine (2-amino-2-(pent-4-en-1-yl)hept-6-enoic acid), stitching residue, C=CCCCC(CCCC=C)(N[*:1])C(=O)[*:2]; TfeGA = (S)-2-amino-3-((carboxymethyl)(2,2,2-trifluoroethyl)amino)propanoic acid, O=C([C@H](CN(CC(=O)[*:3])CC(F)(F)F)N[*:1])[*:2]; PyrS2 = (S)-3-amino-1-((pent-4-en-1-yloxy)carbonyl)pyrrolidine-3-carboxylic acid, C=CCCCOC(=O)N1CC[C@@](N[*:1])(C(=O)[*:2])C1; TriAzDap = Dap whose side chain is a 1H-1,2,3-triazol-1-yl bearing the bracketed 4-substituent; B5(3) = 2,2-bis(4-pentenyl)glycine (stitching residue), C=CCCCC(CCCC=C)(N[*:1])C(=O)[*:2]; Phe(3-COOH) = N[C@@H](Cc1cccc(C(=O)O)c1)C(=O)O; Phe(2-CF3) = N[C@@H](Cc1ccccc1C(F)(F)F)C(=O)O; Phe(2-Cl) = N[C@@H](Cc1ccccc1Cl)C(=O)O; Bta = N[C@@H](Cc1csc2ccccc12)C(=O)O; αAllylPro = C=CC[C@@]1(C(=O)O)CCCN1; tBuAla = CC(C)(C)C[C@H](N)C(=O)O; 3Thi = N[C@@H](Cc1ccsc1)C(=O)O; CMe2CO2H = CC(C)(C(=O)O)*

T1: beta-catenin in DLD1 TCF/LEF luciferase reporter cells (UniProt P35222 1-781)
T1 sequence (looked up): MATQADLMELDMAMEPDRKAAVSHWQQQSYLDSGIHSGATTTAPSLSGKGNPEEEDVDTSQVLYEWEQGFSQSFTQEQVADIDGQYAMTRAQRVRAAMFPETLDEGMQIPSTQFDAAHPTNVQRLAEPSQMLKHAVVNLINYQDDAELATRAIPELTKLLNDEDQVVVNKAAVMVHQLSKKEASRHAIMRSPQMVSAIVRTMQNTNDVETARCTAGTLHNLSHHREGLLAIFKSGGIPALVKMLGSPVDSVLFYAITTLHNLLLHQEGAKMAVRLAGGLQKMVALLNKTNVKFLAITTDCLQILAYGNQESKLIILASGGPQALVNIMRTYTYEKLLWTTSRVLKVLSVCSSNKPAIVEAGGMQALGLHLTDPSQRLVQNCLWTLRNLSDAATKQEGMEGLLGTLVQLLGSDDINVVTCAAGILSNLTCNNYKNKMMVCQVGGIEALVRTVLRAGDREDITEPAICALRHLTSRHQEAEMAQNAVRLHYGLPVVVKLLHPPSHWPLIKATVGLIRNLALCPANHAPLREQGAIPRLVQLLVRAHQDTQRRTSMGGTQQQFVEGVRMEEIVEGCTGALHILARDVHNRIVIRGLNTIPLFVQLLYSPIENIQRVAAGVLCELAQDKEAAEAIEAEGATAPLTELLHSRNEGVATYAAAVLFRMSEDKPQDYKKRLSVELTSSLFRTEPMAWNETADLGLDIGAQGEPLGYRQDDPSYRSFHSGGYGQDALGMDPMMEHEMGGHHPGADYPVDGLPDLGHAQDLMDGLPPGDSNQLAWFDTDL

T2: B-cat-Halo (beta-catenin HaloTag NanoBRET construct expressed in HEK293 cells) (UniProt P35222 1-781)
T2 sequence (looked up): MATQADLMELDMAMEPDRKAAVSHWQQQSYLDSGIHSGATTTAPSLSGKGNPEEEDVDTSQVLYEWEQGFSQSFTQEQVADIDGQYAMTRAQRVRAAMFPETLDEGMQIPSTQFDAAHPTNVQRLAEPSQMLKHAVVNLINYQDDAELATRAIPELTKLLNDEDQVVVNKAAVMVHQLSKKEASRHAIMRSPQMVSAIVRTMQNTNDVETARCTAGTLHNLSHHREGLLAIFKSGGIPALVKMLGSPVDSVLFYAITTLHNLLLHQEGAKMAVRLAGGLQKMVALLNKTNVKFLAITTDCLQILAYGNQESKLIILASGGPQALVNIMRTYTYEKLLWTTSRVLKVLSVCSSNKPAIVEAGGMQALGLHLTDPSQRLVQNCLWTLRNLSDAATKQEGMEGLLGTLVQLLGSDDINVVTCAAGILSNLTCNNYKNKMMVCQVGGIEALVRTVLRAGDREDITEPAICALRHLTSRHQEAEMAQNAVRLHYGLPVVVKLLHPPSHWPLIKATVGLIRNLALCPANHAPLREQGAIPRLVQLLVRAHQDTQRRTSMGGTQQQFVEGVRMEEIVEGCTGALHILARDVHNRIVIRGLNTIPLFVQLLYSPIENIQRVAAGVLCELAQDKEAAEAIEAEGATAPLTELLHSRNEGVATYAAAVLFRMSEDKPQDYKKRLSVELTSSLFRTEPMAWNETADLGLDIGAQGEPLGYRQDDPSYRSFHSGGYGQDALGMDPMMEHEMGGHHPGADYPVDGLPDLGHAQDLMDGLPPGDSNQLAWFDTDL

T3: beta-catenin in DLD1 TCF/LEF luciferase reporter cells (UniProt P35222 1-781)
T3 sequence (looked up): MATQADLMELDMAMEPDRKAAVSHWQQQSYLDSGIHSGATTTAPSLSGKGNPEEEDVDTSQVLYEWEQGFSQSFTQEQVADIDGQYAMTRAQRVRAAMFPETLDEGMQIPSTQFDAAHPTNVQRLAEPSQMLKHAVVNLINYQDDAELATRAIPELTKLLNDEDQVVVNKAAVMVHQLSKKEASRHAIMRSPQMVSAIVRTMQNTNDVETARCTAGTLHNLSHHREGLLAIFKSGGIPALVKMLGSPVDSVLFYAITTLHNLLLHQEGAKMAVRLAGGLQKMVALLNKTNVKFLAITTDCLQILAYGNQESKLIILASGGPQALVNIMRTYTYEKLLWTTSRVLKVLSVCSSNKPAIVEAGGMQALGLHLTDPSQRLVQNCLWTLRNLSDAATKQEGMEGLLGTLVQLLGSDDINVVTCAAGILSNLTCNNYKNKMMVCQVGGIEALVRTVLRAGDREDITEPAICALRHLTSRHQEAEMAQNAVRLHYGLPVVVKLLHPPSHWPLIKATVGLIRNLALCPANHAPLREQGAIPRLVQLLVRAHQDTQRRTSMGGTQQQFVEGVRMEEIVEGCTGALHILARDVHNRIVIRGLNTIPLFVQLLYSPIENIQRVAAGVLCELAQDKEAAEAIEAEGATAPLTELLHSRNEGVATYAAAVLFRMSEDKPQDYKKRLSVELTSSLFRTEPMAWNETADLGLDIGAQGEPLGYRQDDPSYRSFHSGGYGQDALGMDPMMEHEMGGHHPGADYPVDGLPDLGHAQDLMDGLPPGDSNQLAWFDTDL

T4: B-cat-Halo (UniProt P35222 1-781)
T4 sequence (looked up): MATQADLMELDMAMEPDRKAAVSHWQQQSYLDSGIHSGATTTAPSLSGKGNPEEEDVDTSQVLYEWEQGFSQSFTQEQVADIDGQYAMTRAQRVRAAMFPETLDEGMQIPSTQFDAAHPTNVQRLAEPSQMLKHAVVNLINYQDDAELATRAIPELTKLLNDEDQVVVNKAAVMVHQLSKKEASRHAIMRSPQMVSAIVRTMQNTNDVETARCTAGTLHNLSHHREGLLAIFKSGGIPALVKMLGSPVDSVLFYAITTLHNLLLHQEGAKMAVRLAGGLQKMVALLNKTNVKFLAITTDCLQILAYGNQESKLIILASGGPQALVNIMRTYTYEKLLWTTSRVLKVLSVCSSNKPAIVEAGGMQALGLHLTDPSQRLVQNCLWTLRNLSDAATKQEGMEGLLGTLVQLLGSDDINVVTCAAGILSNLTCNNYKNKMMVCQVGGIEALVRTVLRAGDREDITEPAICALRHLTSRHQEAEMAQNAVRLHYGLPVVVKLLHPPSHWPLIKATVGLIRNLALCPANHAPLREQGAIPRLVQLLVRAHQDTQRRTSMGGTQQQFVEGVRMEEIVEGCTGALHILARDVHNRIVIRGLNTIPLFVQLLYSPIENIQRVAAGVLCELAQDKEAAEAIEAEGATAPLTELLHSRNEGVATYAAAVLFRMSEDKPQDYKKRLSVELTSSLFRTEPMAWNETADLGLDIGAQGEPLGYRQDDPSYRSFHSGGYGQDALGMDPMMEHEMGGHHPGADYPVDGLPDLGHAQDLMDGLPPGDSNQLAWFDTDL

T5: full-length beta-Catenin (Uniprot ID P35222) (Homo sapiens (Human), UniProt P35222 1-781)
T5 construct: also called bCat; B-Catenin
T5 sequence: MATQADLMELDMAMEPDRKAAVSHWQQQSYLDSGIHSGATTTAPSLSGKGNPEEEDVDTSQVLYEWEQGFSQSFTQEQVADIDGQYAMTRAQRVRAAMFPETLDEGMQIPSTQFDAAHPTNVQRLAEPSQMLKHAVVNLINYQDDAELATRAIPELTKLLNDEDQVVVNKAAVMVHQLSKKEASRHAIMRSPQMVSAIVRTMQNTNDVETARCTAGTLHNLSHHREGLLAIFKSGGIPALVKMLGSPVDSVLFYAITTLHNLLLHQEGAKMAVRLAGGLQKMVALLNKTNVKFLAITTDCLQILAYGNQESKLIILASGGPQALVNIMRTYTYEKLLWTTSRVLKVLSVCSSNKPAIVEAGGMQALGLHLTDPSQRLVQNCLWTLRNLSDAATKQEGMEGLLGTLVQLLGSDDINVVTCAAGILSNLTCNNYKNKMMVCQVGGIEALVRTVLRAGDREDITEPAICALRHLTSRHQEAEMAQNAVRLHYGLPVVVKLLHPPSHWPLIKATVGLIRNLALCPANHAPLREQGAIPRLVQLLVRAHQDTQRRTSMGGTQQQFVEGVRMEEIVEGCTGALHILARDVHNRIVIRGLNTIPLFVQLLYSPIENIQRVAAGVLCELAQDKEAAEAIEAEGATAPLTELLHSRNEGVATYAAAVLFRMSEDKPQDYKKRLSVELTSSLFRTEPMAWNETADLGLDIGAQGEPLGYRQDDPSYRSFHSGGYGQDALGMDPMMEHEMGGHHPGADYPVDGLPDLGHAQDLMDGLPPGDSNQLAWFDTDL

T6: beta-catenin in DLD1 TCF/LEF luciferase reporter cells (UniProt P35222 1-781)
T6 sequence (looked up): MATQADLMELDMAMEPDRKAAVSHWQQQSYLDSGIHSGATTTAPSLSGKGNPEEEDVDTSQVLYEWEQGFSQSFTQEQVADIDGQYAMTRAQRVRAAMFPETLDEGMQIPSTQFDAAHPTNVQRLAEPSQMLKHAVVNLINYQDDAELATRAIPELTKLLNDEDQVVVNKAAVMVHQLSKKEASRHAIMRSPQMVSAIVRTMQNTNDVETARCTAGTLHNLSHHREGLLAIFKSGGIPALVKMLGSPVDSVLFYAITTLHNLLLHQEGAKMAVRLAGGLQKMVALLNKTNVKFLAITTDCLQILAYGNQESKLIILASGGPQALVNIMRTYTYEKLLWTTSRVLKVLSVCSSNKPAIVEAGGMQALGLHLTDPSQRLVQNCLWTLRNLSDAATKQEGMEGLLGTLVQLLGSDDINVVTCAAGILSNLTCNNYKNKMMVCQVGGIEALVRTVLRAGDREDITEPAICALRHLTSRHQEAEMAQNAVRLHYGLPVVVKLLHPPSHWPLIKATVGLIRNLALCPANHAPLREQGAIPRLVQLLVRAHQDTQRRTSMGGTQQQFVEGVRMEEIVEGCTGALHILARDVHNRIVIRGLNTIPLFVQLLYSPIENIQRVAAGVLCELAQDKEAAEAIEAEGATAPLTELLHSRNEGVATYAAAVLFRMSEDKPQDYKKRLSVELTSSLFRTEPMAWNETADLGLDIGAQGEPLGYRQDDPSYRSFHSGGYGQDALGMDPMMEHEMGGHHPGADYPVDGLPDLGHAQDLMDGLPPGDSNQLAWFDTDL


Legend:
[1] = target: T1, beta-catenin in DLD1 TCF/LEF luciferase …; assay: cell-based or functional assay
[2] = target: T2, B-cat-Halo (beta-catenin HaloTag …); assay: cell-based or functional assay
[3] = target: T3, beta-catenin in DLD1 TCF/LEF luciferase …; assay: cell-based or functional assay; remark: listed apart in the source
B-cat-Halo = target: T4, B-cat-Halo; assay: cell-based or functional assay
[4] = target: T5, full-length beta-Catenin (Uniprot ID …); assay: fluorescence polarization competition; full-length beta-catenin + 5FAM-TCF4(10-53) probe
Experimental: The plate was incubated protected from light for 60 minutes at 20° C. prior to read. Reads were performed on a CLARIOstar plate reader (BMG Labtech) in duplicate, and data were fitted to a 1:1 binding model with hill slope using an in-house script. All provided concentrations are final concentrations.

[5] = target: T6, beta-catenin in DLD1 TCF/LEF luciferase …; assay: cell-based or functional assay; remark: listed apart in the source

| Binder | EC50 [4] [µM] | DLD1 4% Abs IC50 [5] [µM] | other results |
| --- | --- | --- | --- |
| Ac-[αAllylPro]D[tBuAla][B5(3)]D[TfeGA]AAFL[PyrS2″][3Thi][Bta][Me2Gln]A-NH2 (staple 1-4, 4-11) [Ac-PL3-Asp-Npg-B5-Asp-TfeGA-Ala-Ala-Phe-Leu-PyrS2-3Thi-BztA-Me2Gln-Ala-NH2] |  |  | DLD1 4% Abs IC50 [1]: 1.4 µM; NanoBRET Abs IC50 [2]: 2.5 µM |
| Ac-[αAllylPro]D[tBuAla][B5(18)]DDAAFT[PyrS2″][Phe(2-Cl)][Bta]S-NH2 (staple 1-4, 4-11) [I-1015] |  |  | DLD1 4% Abs IC50 [3]: 5.7 µM; NanoBRET Abs IC50 (B-cat-Halo): 8.9 µM |
| Ac-[αAllylPro]DA[B5(10)]NTAAFL[PyrS2]F[Bta]Q-NH2 (staple 1-4, 4-11; not fully specified; printed as Ac-PL3-Asp-Ala-B5-Asn-Thr-Ala-Ala-Phe-Leu-PyrS2-Phe-BztA-Gln-NH2) [I-1296] | 3.79 |  |  |
| Ac-[αAllylPro]D[tBuAla][B5(3)]D[Phe(3-COOH)]AAFL[PyrS2″][Phe(2-CF3)][Bta]QLA-NH2 (staple 1-4, 4-11) [I-2378] |  | 1 |  |
| Ac-[αAllylPro]D[tBuAla][B5(3)]D[TriAzDap](CMe2CO2H)AAFL[PyrS2″][Phe(2-CF3)][Bta]S-NH2 (staple 1-4, 4-11) [I-2374] |  | 2.6 |  |
| Ac-[αAllylPro]DA[B5(10)]NTAAFL[PyrS2]F[Bta]Q-NH2 (staple 1-4, 4-11; not fully specified; printed as Ac-PL3-Asp-Ala-B5-Asn-Thr-Ala-Ala-Phe-Leu-PyrS2-Phe-BztA-Gln-NH2) [I-1295] | 10 |  |  |
